Assay results: patent US20260234276A1 (DOMAIN THERAPEUTICS, published 2026)
Substitutions are numbered along the chain they refer to. “And” between values parts separate entries of the source, which are not always exact repeats. Identical values can stand only once. Values belong to the binder of their own block, whether it stands above or below them.

Assays:
[1] = target: pm8 (human, sulfated tyrosines at Y15, Y16 and Y17); test: ELISA on coated peptide [cont.]
Method in brief: (§1)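 OD after 15 min TMB development reflects binding of each anti-CCR8 mAb, tested at 1 μg/mL and diluted 1/10, to CCR8-related peptides adsorbed at 500 ng/mL from carbonate/bicarbonate buffer. Antibody incubation lasted 90 min at room temperature.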

[2] = target: pm3 (human, sulfated tyrosine at Y17); test: ELISA on coated peptide [cont.]
Method in brief: as §1

[3] = target: pm5 (human, sulfated tyrosines at Y15 and Y17); test: ELISA on coated peptide [cont.]
Method in brief: as §1

[4] = target: pm6 (human, sulfated tyrosines at Y16 and Y17); test: ELISA on coated peptide [cont.]
Method in brief: as §1

[5] = target: T1, human CCR8 (human, UniProt P51685 1-355); test: cell-based or functional assay
[6] = target: T1, human CCR8; test: cell-based or functional assay; remark: listed apart in the source
[7] = target: T1, human CCR8; test: competition HTRF on HEK-293 cells with hCCR8; blocked ligand CCL1-AF647 [cont.]
[8] = target: T1, human CCR8; test: flow cytometry, hCCR8 transfected CHOK1 cells
[9] = target: T1, human CCR8; test: cell-based or functional assay; remark: listed apart in the source
[10] = target: T1, human CCR8; test: cell-based or functional assay; remark: listed apart in the source
[11] = target: T1, human CCR8; test: cell-based or functional assay; remark: listed apart in the source
[12] = target: T1, human CCR8; test: flow cytometry, HUT78 cells (native CCR8)
Protocol: The same staining protocol was applied on human CCR8 transfected CHO cell line versus wild type CHO cell line, cutaneous T cell lymphoma HUT78 cell line and human activated T cell model.
Briefly, 1·10⁵ cells per well in a 96 well plate were incubated with a dilution of unconjugated anti-CCR8 mAb at 10 μg/mL then diluted at 1/3.33, 4 dilution points (during 30 min at 4° C.). […] To determine EC50 value, 8 concentrations of anti-CCR8 mAb were tested. Unbound antibodies were washed away with PBS (Invitrogen by Thermofisher Scientific, Illkirch-Graffenstaden, France) supplemented by 2% Fetal Bovine Serum (Invitrogen by Thermofisher Scientific, Illkirch-Graffenstaden, France) and 2 mM EDTA (Invitrogen by Thermofisher Scientific, Illkirch-Graffenstaden, France). Subsequently, cells are centrifuged (5 min at 400 g) and bound antibody is detected with F(ab′)₂-Goat anti-Mouse IgG (H+L) Cross-Adsorbed Secondary Antibody, Alexa Fluor 488 (dilution 1/500) (Invitrogen by Thermofisher Scientific, Illkirch-Graffenstaden, France) or with F(ab′)₂-Goat anti-Human IgG Fc Secondary Antibody, PE (Invitrogen by Thermofisher Scientific, Illkirch-Graffenstaden, France) (dilution 1/1000) at 4° C. for 30 min. Detection reagent is washed away and cells are centrifuged (5 min at 400 g) and resuspended in 30 μL PBS. Bound detection antibody is quantified on a MacsQuant16 (Miltenyi, Gladbach, Germany) (B1 or B2 channel, 5000 events per acquisition).

pm3 (human, sulfated tyrosine at Y17), sequence (peptide, as listed by the source): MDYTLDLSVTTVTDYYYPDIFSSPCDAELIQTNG
pm6 (human, sulfated tyrosines at Y16 and Y17), sequence (peptide, as listed by the source): as above
pm5 (human, sulfated tyrosines at Y15 and Y17), sequence (peptide, as listed by the source): as above
pm8 (human, sulfated tyrosines at Y15, Y16 and Y17), sequence (peptide, as listed by the source): as above

binding result [1]: binds | binding result [2]: binds | binding result [3]: binds | binding result [4]: binds | hCCL1 (100 nM) residual response, Protocol #2, mAb 0.08 µg/mL [5]: 88% | hCCL1 (100 nM) residual response, Protocol #2, mAb 0.4 µg/mL [5]: 82% | hCCL1 (100 nM) residual response, Protocol #2, mAb 10 µg/mL [5]: 64% | hCCL1 (100 nM) residual response, Protocol #3, mAb 0.05 µg/mL [5]: 88% | hCCL1 (100 nM) residual response, Protocol #3, mAb 0.5 µg/mL [5]: 71% | hCCL1 (100 nM) residual response, Protocol #3, mAb 5 µg/mL [5]: 70% | IC50 (Gi2 BRET, pH 6.5) [6]: 0.024 µg/ml and 0.157 nM | IC50 (Gi2 BRET, pH 7.4) [6]: 0.048 µg/ml and 0.318 nM | IC50 (read off the curve) [7]: ~0.02 µg/mL
B1: 3-76 (antibody, human IgG1, kappa, V domains shown)
VH: EVQLVESGGGLVQPGRSLRLSCTASGFTFNTYAMNWVRQAPGKGLEWVARIRSKSNNYATYYAASVKGRFTISRDDSKSIAYLQMNSLKTEDTAVYYCVRGREAYYRYDGGYYAMDVWGQGTTVTVSS
VL: DIVMTQAAPSLPVTPGESASISCRSSKSLLHSNGNTYLYWFLQKPGQSPQLLIYRMSNLASGVPDRFSGSGSGTAFTLKISRVEAEDVGVYYCMQHLEYPFTFGSGTKLEIKR
notes: humanized, human IgG1 kappa

% positive cells [8]: 34.7% | MFI fold change to isotype ctrl [8]: 2.34 fold | hCCL1 (100 nM) residual response, Protocol #2, mAb 0.08 µg/mL [5]: 97% | hCCL1 (100 nM) residual response, Protocol #2, mAb 0.4 µg/mL [5]: 96% | hCCL1 (100 nM) residual response, Protocol #2, mAb 10 µg/mL [5]: 84% | hCCL1 (100 nM) residual response, Protocol #3, mAb 0.05 µg/mL [5]: 96% | hCCL1 (100 nM) residual response, Protocol #3, mAb 0.5 µg/mL [5]: 81% | hCCL1 (100 nM) residual response, Protocol #3, mAb 5 µg/mL [5]: 73% | IC50 (Gi2 BRET, pH 6.5) [6]: 0.162 µg/ml and 1.08 nM | IC50 (Gi2 BRET, pH 7.4) [6]: 0.152 µg/ml and 1.01 nM | Top plateau value (% of hCCL1 100 nM) with 5 µg/mL mAb, Protocol #3 [9]: 292%
B2: 3-50 (antibody, V domains shown)
VH: EVQLQQSGPELVKPGASVKISCKASVYSFTGSYMHWVKQSHVKSLEWIGRINPYNGATSYNQNFKDKASLTVDKSSSTAYMELHSLTSEDSAVYYCATTLLRLLDYWGQGTTLTVSS
VL: DIVMTQAAFSNPVTLGTSASISCRSSKSLLHSNGITYLYWYLQKPGQSPQLLIYQMSNLASGVPDRFSSSGSGTDFTLRISRVEAEDVGVYYCAQNLELPWTFGGGTKLEIK

ADCC % Max lysis, NK cells Donor 1 [10]: 22% | ADCC % Max lysis, NK cells Donor 2 [10]: 20% | ADCC EC50, NK cells Donor 1 [10]: 2.24 pM | ADCC EC50, NK cells Donor 2 [10]: 2.16 pM | ADCP % Max of phagocytosis, monocyte-derived macrophages Donor 9 [11]: 8.29% | % of labelled cells [12]: 34% | EC50 [12]: 400 pM
B3: 3-83 (antibody)
heavy: not shown
light: DIVMTQAAPSLSVTPGESASISCTSSKSLLHSNGNTYLYWFLQKPGQSPQLLIYRMSNLASGVPDRFSGSGSGTAFTLKISRVEAEDVGVYYCMQHREYPFTFGSGTKLEIKRTVAAPSVFIFPPSDEQLKSGTASVVCLLNNFYPREAKVQWKVDNALQSGNSQESVTEQDSKDSTYSLSSTLTLSKADYEKHKVYACEVTHQGLSSPVTKSFNRGEC

ADCC % Max lysis, NK cells Donor 1 [10]: 31% | ADCC % Max lysis, NK cells Donor 2 [10]: 26% | ADCC EC50, NK cells Donor 1 [10]: 73.3 pM | ADCC EC50, NK cells Donor 2 [10]: 90.4 pM | ADCP % Max of phagocytosis, monocyte-derived macrophages Donor 9 [11]: 7.27%
B4: 3-85 (antibody)
heavy: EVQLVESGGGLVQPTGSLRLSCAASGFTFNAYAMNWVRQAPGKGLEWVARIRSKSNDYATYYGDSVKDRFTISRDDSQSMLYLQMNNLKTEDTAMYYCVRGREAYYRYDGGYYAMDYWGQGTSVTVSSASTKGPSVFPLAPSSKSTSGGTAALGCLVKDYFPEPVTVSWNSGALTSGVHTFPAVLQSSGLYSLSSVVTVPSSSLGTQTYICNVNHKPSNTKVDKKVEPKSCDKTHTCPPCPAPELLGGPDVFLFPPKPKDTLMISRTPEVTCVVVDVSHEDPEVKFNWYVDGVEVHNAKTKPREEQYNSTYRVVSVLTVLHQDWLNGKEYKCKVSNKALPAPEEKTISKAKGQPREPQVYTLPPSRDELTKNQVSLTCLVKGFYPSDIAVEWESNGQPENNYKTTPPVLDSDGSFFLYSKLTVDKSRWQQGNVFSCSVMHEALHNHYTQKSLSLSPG
light: B3 light with L11V, A19V, K44R, K79R

% positive cells [8]: 77% | MFI fold change to isotype ctrl [8]: 9.2 fold | binding result [1]: binds | binding result [2]: binds | binding result [3]: binds | binding result [4]: binds | hCCL1 (100 nM) residual response, Protocol #2, mAb 0.08 µg/mL [5]: 52% | hCCL1 (100 nM) residual response, Protocol #2, mAb 0.4 µg/mL [5]: 68% | hCCL1 (100 nM) residual response, Protocol #2, mAb 10 µg/mL [5]: 53% | hCCL1 (100 nM) residual response, Protocol #3, mAb 0.05 µg/mL [5]: 76% | hCCL1 (100 nM) residual response, Protocol #3, mAb 0.5 µg/mL [5]: 62% | hCCL1 (100 nM) residual response, Protocol #3, mAb 5 µg/mL [5]: 59% | IC50 (Gi2 BRET, pH 6.5) [6]: 0.012 µg/ml and 0.08 nM | IC50 (Gi2 BRET, pH 7.4) [6]: 0.015 µg/ml and 0.097 nM | Top plateau value (% of hCCL1 100 nM) with 5 µg/mL mAb, Protocol #3 [9]: 948%
B5: 3-53 (antibody, V domains shown)
VH: QVQVQQSGAELARPGASVKMSCKASGYTFTTYAMHWVKQRPGQGLEWIGHINPSSGYSNYNQKFKDKATLTADKSSSTAYMQLSSLTSEDSAVYYCARSEVRRGYFDVWGAGTTVTVSS
VL: DIQMTQTTSSLSASLGDRVTISCRTSQDIRNYLNWYQQKPDGTVKLLISYTSRLHSGVPSRFSGSGSGTDYSLTISNLEQEDFATYFCQQGNTLPPTFGGGTRVEIK

% positive cells [8]: 85.7% | MFI fold change to isotype ctrl [8]: 9.8 fold | binding result [1]: binds | binding result [2]: binds | binding result [3]: binds | binding result [4]: binds | hCCL1 (100 nM) residual response, Protocol #2, mAb 0.08 µg/mL [5]: 101% | hCCL1 (100 nM) residual response, Protocol #2, mAb 0.4 µg/mL [5]: 93% | hCCL1 (100 nM) residual response, Protocol #2, mAb 10 µg/mL [5]: 100% | hCCL1 (100 nM) residual response, Protocol #3, mAb 0.05 µg/mL [5]: 92% | hCCL1 (100 nM) residual response, Protocol #3, mAb 0.5 µg/mL [5]: 81% | hCCL1 (100 nM) residual response, Protocol #3, mAb 5 µg/mL [5]: 73% | IC50 (Gi2 BRET, pH 6.5) [6]: 0.051 µg/ml and 0.34 nM | IC50 (Gi2 BRET, pH 7.4) [6]: 0.059 µg/ml and 0.396 nM | Top plateau value (% of hCCL1 100 nM) with 5 µg/mL mAb, Protocol #3 [9]: 663%
B6: 3-13 (antibody, V domains shown)
VH: KVQLQQSGPELVKPGASVKISCKTSGYTFTEYTIHWVQQIHGKSPEWIGGINPNGDTRYDQKFKGKATLTIDKSSSTAYMELRSLTSEDSAVYYCARVARFYGISPYAMDYWGQGTSVTVSS
VL: DVVMTQTPLSLPVSLGDQASISCRCTQSLLHSNGDTYLHWYLQKPGQSPNLLIYKVSNRFSGVPDRFSGSGSGTDFTLKINRVEAEDLGVYFCSQSTHVPYTFGGGTNLEIK

% positive cells [8]: 85.2% | MFI fold change to isotype ctrl [8]: 11.9 fold | binding result [1]: binds | binding result [2]: binds | binding result [3]: binds | binding result [4]: binds | hCCL1 (100 nM) residual response, Protocol #2, mAb 0.08 µg/mL [5]: 99% | hCCL1 (100 nM) residual response, Protocol #2, mAb 0.4 µg/mL [5]: 97% | hCCL1 (100 nM) residual response, Protocol #2, mAb 10 µg/mL [5]: 97% | hCCL1 (100 nM) residual response, Protocol #3, mAb 0.05 µg/mL [5]: 99% | hCCL1 (100 nM) residual response, Protocol #3, mAb 0.5 µg/mL [5]: 84% | hCCL1 (100 nM) residual response, Protocol #3, mAb 5 µg/mL [5]: 75% | IC50 (Gi2 BRET, pH 6.5) [6]: 0.414 µg/ml and 2.76 nM | IC50 (Gi2 BRET, pH 7.4) [6]: 0.359 µg/ml and 2.4 nM | Top plateau value (% of hCCL1 100 nM) with 5 µg/mL mAb, Protocol #3 [9]: 133%
B7: 3-21 (antibody, V domains shown)
VH: QVQLKESGPGLVAPSQSLSITCTVSGLSMNDYVVTWIRQPPGKGLEWLGVIWGGGNTYYNSDLKSRLSITKDNSKSQVFFKMSSLQTDDTAVYYCARRHRDYALDYWGQGISVTVSS
VL: B6 VL with C25S, T26S, L30V, H31Y, D35N, N50K, N81S, H98Y, Y101P, N108K

% positive cells [8]: 56.2% | MFI fold change to isotype ctrl [8]: 4.78 fold | binding result [1]: binds | binding result [2]: binds | binding result [3]: binds | binding result [4]: binds | hCCL1 (100 nM) residual response, Protocol #2, mAb 0.08 µg/mL [5]: 104% | hCCL1 (100 nM) residual response, Protocol #2, mAb 0.4 µg/mL [5]: 46% | hCCL1 (100 nM) residual response, Protocol #2, mAb 10 µg/mL [5]: 28% | hCCL1 (100 nM) residual response, Protocol #3, mAb 0.05 µg/mL [5]: 80% | hCCL1 (100 nM) residual response, Protocol #3, mAb 0.5 µg/mL [5]: 57% | hCCL1 (100 nM) residual response, Protocol #3, mAb 5 µg/mL [5]: 45% | Top plateau value (% of hCCL1 100 nM) with 5 µg/mL mAb, Protocol #3 [9]: 855%
B8: 3-33 (antibody, V domains shown)
VH: EVQLQQSGPELVKPGASVKISCKTSGYTFTEYTIHWVKQSHGESLEWVGGINPNNGNTRYDQKFKGKATLTIDKSSSPAYMELRSLTSEDSAVYYCARVARSSGSGPYAMDYWGQGTSVTVSS
VL: B6 VL with S32T, N50K, N81S, N108K
